From patent US8673289B2, “Attenuated uracil auxotroph of an apicomplexan and use thereof” (priority 2007, dated 2014)
Where a chain is given by its changes, count along the chain named. Names may count otherwise. Like-named read-outs stand apart in the source and are kept apart here.

Experiments:
cps1 and cps2 mutants = assay: pyrimidine dependence of cps1 and cps2 replication and plaque formation; type: cell-based, Toxoplasma gondii; conditions: for rescue of growth rate / replication of cps1 and cps2: relatively low (thymine, thymidine: moderate) concentrations in medium
Description: However, all of these mutants are somewhat “leaky” in that there was not an absolute growth (replication) dependence on uracil addition to the growth medium for replication. Each of these mutants grows at a moderate (½ of normal) growth rate for the first 2 days following infection of a host cell producing vacuoles that contained 16 to 32 parasites by 3 days post infection. In contrast, RH parasites are lysed out of their primary vacuoles at this time (3 days, >64 parasites). However, the cps mutants slow after 3 days and many parasites never (about ⅓) break out of their primary vacuole. If the primary vacuole breaks, a few parasites can be detected at the site of infection but the infection site always involves a small zone of infection that never forms a visible plaque in a standard 7 day plaque assay. To quantitate growth of these mutants, HFF flasks were inoculated with […] or cps2 parasites (about a multiplicity of infection (MOI) of 1 parasite per 20 HFF cells). After 2 hours of attachment and invasion (all of these mutants have normal attachment and invasion phenotypes as scored by counting percent entered parasites into host cells as a function of time post-inoculation), different concentrations of different pyrimidine compound was added to parallel infected HFF flasks. As a function of time post pyrimidine addition (t=0 hour) the number of parasites per vacuole was scored for 50 vacuoles as described by Fox et al. ((1999) supra). The number of parasite doublings was calculated based on 1 parasite entering each primary vacuole. Thus, 1 doubling=2 parasites per vacuole, 3 doublings=8 parasites per vacuole, and 5 doublings=32 parasites per vacuole. The pyrimidine dependence of cps1 and cps2 replication (doublings of parasites in the vacuole) was plotted graphically. […] The response to thymine and thymidine was additionally informative about the cause of the growth defect in cps1 and cps2. […] This is believed to be caused by the putative defect in the cps1 and cps2 mutants which is a reduced “pool” size of UMP. If UMP pools (ultimately used for RNA and DNA synthesis) are lowered it follows that a resulting decrease in TMP pools is expected since UMP is the precursor of TMP in T. gondii and all other apicomplexan parasites which normally lack TK activity. However, since cps1 and cps2 now express a TK activity carried into the parasite by the p53KOX3-1R plasmid, exemplified by sensitivity of these mutants to ganciclovir (specific to HSV TK), feeding parasites either thymine or thymidine is expected to increase TMP pools. Thus, it appears that moderate levels of thymine or thymidine partially rescue growth of cps1 and cps2 by restoring TMP pools. […] Since the parasite has no mechanism to convert TMP back to UMP there is still a defect in the UMP pool in cps1 and cps2 even with added thymine or thymidine and rescue is never complete. The ability of cps1 and cps2 mutants to form plaques on HFF monolayers in the standard 7 day assay paralleled the pyrimidine dependence of parasite replication in vacuoles.
The cps1 and cps2 mutants were inoculated intraperitoneally (i.p.) into balb/c mice to measure parasite virulence compared to virulent RH parasites. Both mutant cps1 and cps2 had equal virulence as RH parasites in balb/c mice (Jackson Labs), killing all mice within 10 days of i.p. inoculation (group size was four mice per parasite strain). Only 100 parasites (˜50 PFU) of each parasite strain was needed to kill all mice in each group. This pattern of virulence can be understood by re-examining the pyrimidine dependence of cps1 and cps2 growth. Uridine is believed to be the pyrimidine responsible for virulence of cps1 and cps2 in mice. Only 5 μM uridine completely rescues normal plaque size of cps1 and cps2 in vitro. Plasma concentrations of uridine in mice are approximately 5 to 10 μM.

cps1-1 and cps2-1 = assay: pyrimidine rescue of cps1-1 and cps2-1 replication and plaque formation; type: cell-based, Toxoplasma gondii; conditions: for rescue of replication (doublings) of cps1-1 and cps2-1: 36-hour replication assay, HFF
Protocol: No pyrimidine compound at less than 25 μM could rescue plaque formation of cps1-1 or cps2-1. […] Uridine was quite poor at rescue of plaque formation in cps1-1 and cps2-1.
A more detailed growth response to pyrimidine, measured as parasite replications (doublings) was performed for cps1-1 and cps2-1 and compared to the results previously obtained for […]. […] Uridine rescue was poor, with a slow restoration of growth at very high amounts, >400 μM. Deoxyuridine rescue was significant, but again, full growth rate was not restored at any concentration of deoxyuridine. Rescue with uracil was robust, but only in a limited range of concentration. Full restoration of growth rate in cps1-1 and cps2-1 was possible only with uracil added between 200 and 400 μM. […] This phenotype can only be observed in T. gondii pyrimidine auxotroph mutants, not in wild-type parasites with intact de novo pyrimidine synthesis pathways.
The pyrimidine growth dependence of mutant cps1-1 on the pyrimidine salvage pathway was further documented in thymidine interference experiments. Mutant cps1-1 plaques well in 250 μM uracil or deoxyuridine, but not in 1000 μM thymidine. Since thymidine at 1000 μM is known to inhibit approximately 90% of the parasite nucleoside phosphorylase activity specific for cleavage of deoxyuridine (Iltzsch, (1993) J. Euk. Micro. 40:24-28), growth of cps1-1 was tested in combinations of 1000 μM thymidine and 250 μM uracil or 250 μM deoxyuridine. All pyrimidine salvage in T. gondii must pass through uracil and UPRT conversion of uracil to UMP. In contrast, thymidine has no effect on UPRT activity. Thus, if growth of cps1-1 were dependent on deoxyuridine supplementation then replication in this condition may be inhibited by co-supplementing with 1000 μM thymidine. […] Thus, when cps1-1 is grown in deoxyuridine the parasite strictly requires nucleoside phosphorylase activity to cleave deoxyuridine for growth. […] Thus, cps1-1 and cps2-1 rely strictly on pyrimidine salvage enzymes for growth and further, the HFF host cell in vitro cannot supply sufficient pyrimidines for growth of cps1-1 or cps2-1. […] Such potential inhibitors can only be identified using a pyrimidine auxotroph such as provided in the instant invention.
To assess reversion, 10^6 to 10^7 cps1-1 or cps2-1 parasites were periodically inoculated into HFF flasks supplemented with 5 μM uridine. This concentration of uridine is sufficient to rescue the parent strains (cps1 and cps2) of cps1-1 and cps2-1.

wild-type T. gondii = assay: labeling of parasites with [3H]pyrimidines (pyrimidine salvage); type: cell-based, Toxoplasma gondii; conditions: parasites grown in host cells
Protocol: Initial experiments primarily involved an enzymatic analysis of drug resistant mutants and the incorporation of various pyrimidine analogs into T. gondii RNA and DNA as an indication of pyrimidine salvage when parasites were grown in either normal host or mutant host cells. All biochemical communications between the parasite and host cells cross the vacuolar membrane which is now known to contain “pores” that permit the passage of nucleobases ranging in molecular mass from 112 daltons up to 244 daltons. The size of the pores is estimated to be approximately 1500 daltons. A T. gondii mutant resistant to 5-fluorodeoxyuridine (FUDR-1) had lost uracil phosphoribosyltransferase (UPRT), an enzyme which is absent in normal host cells (Pfefferkorn (1978) Expt. Parasitol. 44:26-35). […] FUDR-1 mutant parasites were not labeled with [^3H]deoxyuridine. […] FUDR-1 mutant parasites were not labeled with [^3H]uridine. […] FUDR-1 (UPRT knock-out) parasites were not labeled with [^3H]uracil.
Similarly, since uracil only labels the parasite, due to the parasite UPRT, which is absent in the host, the pyrimidine pools of the parasite are also unavailable to the host. Thus, there is no detectable pyrimidine traffic detected between the parasite and host.

E. coli CPS = conditions: cited from earlier work

## Cc1c[nH]c(=O)[nH]c1=O [thymine]
cps1 and cps2 mutants
  rescue of growth rate / replication of cps1 and cps2: partially rescued
cps1 and cps2 mutants; very high concentrations
  rescue of replication of cps1 and cps2: did not rescue replication
cps1-1 and cps2-1
  rescue of replication (doublings) of cps1-1 and cps2-1: remained as a single non-replicated parasite
cps1-1 and cps2-1; plaque assay
  rescue of plaque formation of cps1-1 and cps2-1: no response was detected
wild-type T. gondii
  incorporation of [3H]-labeled pyrimidine into wild-type parasites: did not incorporate

## O=C(O)c1cc(=O)[nH]c(=O)[nH]1 [orotic acid]
wild-type T. gondii
  incorporation of [3H]-labeled pyrimidine into wild-type parasites: did not incorporate

## Nc1ccn([C@H]2C[C@H](O)[C@@H](CO)O2)c(=O)n1 [deoxycytidine]
cps1 and cps2 mutants
  rescue of growth rate / replication of cps1 and cps2: completely rescued
cps1-1 and cps2-1
  rescue of replication (doublings) of cps1-1 and cps2-1: remained as a single non-replicated parasite

B1: E. c. G359F: E. coli CPS with ammonia tunnel wall mutation G359F (protein, UniProt P0A6F1 1-382; P00968 2-1073, looked up, variant G359F)
Carbamoyl phosphate synthase … 1: MIKSALLVLEDGTQFHGRAIGATGSAVGEVVFNTSMTGYQEILTDPSYSRQIVTLTYPHIGNVGTNDADEESSQVHAQGLVIRDLPLIASNFRNTEDLSSYLKRHNIVAIADIDTRKLTRLLREKGAQNGCIIAGDNPDAALALEKARAFPGLNGMDLAKEVTTAEAYSWTQGSWTLTGGLPEAKKEDELPFHVVAYDFGAKRNILRMLVDRGCRLTIVPAQTSAEDVLKMNPDGIFLSNGPGDPAPCDYAITAIQKFLETDIPVFGICLGHQLLALASGAKTVKMKFGHHGGNHPVKDVEKNVVMITAQNHGFAVDEATLPANLRVTHKSLFDGTLQGIHRTDKPAFSFQGHPEASPFPHDAAPLFDHFIELIEQYRKTAK
Carbamoyl phosphate synthase … 2: PKRTDIKSILILGAGPIVIGQACEFDYSGAQACKALREEGYRVILVNSNPATIMTDPEMADATYIEPIHWEVVRKIIEKERPDAVLPTMGGQTALNCALELERQGVLEEFGVTMIGATADAIDKAEDRRRFDVAMKKIGLETARSGIAHTMEEALAVAADVGFPCIIRPSFTMGGSGGGIAYNREEFEEICARGLDLSPTKELLIDESLIGWKEYEMEVVRDKNDNCIIVCSIENFDAMGIHTGDSITVAPAQTLTDKEYQIMRNASMAVLREIGVETGGSNVQFAVNPKNGRLIVIEMNPRVSRSSALASKATGFPIAKVAAKLAVGYTLDELMNDITGGRTPASFEPSIDYVVTKIPRFNFEKFAGANDRLTTQMKSVGEVMAIGRTQQESLQKALRGLEVGATGFDPKVSLDDPEALTKIRRELKDAGADRIWYIADAFRAGLSVDGVFNLTNIDRWFLVQIEELVRLEEKVAEVGITGLNADFLRQLKRKGFADARLAKLAGVREAEIRKLRDQYDLHPVYKRVDTCAAEFATDTAYMYSTYEEECEANPSTDREKIMVLGGGPNRIGQGIEFDYCCVHASLALREDGYETIMVNCNPETVSTDYDTSDRLYFEPVTLEDVLEIVRIEKPKGVIVQYGGQTPLKLARALEAAGVPVIGTSPDAIDRAEDRERFQHAVERLKLKQPANATVTAIEMAVEKAKEIGYPLVVRPSYVLGGRAMEIVYDEADLRRYFQTAVSVSNDAPVLLDHFLDDAVEVDVDAICDGEMVLIGGIMEHIEQAGVHSGDSACSLPAYTLSQEIQDVMRQQVQKLAFELQVRGLMNVQFAVKNNEVYLIEVNPRAARTVPFVSKATGVPLAKVAARVMAGKSLAEQGVTKEVIPPYYSVKEVVLPFNKFPGVDPLLGPEMRSTGEVMGVGRTFAEAFAKAQLGSNSTMKKHGRALLSVREGDKERVVDLAAKLLKQGFELDATHGTAIVLGEAGINPRLVNKVHEGRPHIQDRIKNGEYTYIINTTSGRRAIEDSRVIRRSALQYKVHYDTTLNGGFATAMALNADATEKVISVQEMHAQIK
modifications: mutation in small subunit
E. coli CPS; effect on GATase-CPS coupling
  Effect on CPS or CPSII: Uncouples GATase & CPS

B2: E. c. E761A: E. coli CPS with K-loop mutation E761A (protein, UniProt P0A6F1 1-382; P00968 2-1073, looked up, variant E761A)
Carbamoyl phosphate synthase … 1: B1 Carbamoyl phosphate synthase … 1 with F359G
Carbamoyl phosphate synthase … 2: B1 Carbamoyl phosphate synthase … 2 with E760A
modifications: mutation in large subunit
E. coli CPS; effect on UMP repression
  Effect on CPS or CPSII: Abolishes UMP repression
E. coli CPS; effect on ornithine activation
  Effect on CPS or CPSII: Abolishes ornithine activation

B3: E. c. C269A: E. coli CPS with catalytic triad mutation C269A (protein, UniProt P0A6F1 1-382; P00968 2-1073, looked up, variant C269A)
Carbamoyl phosphate synthase … 1: B1 Carbamoyl phosphate synthase … 1 with C269A, F359G
Carbamoyl phosphate synthase … 2: B1 Carbamoyl phosphate synthase … 2
modifications: mutation in small subunit
E. coli CPS
  Effect on CPS or CPSII: Abolishes GATase activity

B4: E. c. H781K: E. coli CPS with K-loop mutation H781K (protein, UniProt P0A6F1 1-382; P00968 2-1073, looked up, variant H781K)
Carbamoyl phosphate synthase … 1: B1 Carbamoyl phosphate synthase … 1 with F359G
Carbamoyl phosphate synthase … 2: B1 Carbamoyl phosphate synthase … 2 with H780K
modifications: mutation in large subunit
E. coli CPS; effect on UMP repression
  Effect on CPS or CPSII: Reduces UMP repression
E. coli CPS; effect on ornithine activation
  Effect on CPS or CPSII: Reduces ornithine activation

B5: E. c. T974A: E. coli CPS with regulatory domain mutation T974A (protein, UniProt P0A6F1 1-382; P00968 2-1073, looked up, variant T974A)
Carbamoyl phosphate synthase … 1: B1 Carbamoyl phosphate synthase … 1 with F359G
Carbamoyl phosphate synthase … 2: B1 Carbamoyl phosphate synthase … 2 with T973A
modifications: mutation in large subunit
E. coli CPS; effect on IMP activation
  Effect on CPS or CPSII: Abolishes IMP activation
E. coli CPS; effect on UMP repression
  Effect on CPS or CPSII: Abolishes UMP repression
E. coli CPS; effect on ornithine activation
  Effect on CPS or CPSII: Reduces ornithine activation
